Assay results: patent publication US20260098095A1 (Hoffmann-La Roche, published 2026)

Experiments:
Assay in all cases: cell-based or functional assay
[1] = target: T1, HLA-A2/MAGE-A4 peptide MHC (pMHC) complex on cells (human)
V2A = V2A (human)
G5A = G5A (human)
Y3A = Y3A (human)
[2] = target: T1, HLA-A2/MAGE-A4 peptide MHC (pMHC) …; remark: listed apart in the source
E7A = E7A (human)
D4A = D4A (human)
G1A = G1A (human)
H8A = H8A (human)
T9A = T9A (human)
V10A = V10A (human)
R6A = R6A (human)
[3] = target: T1, HLA-A2/MAGE-A4 peptide MHC (pMHC) …; remark: listed apart in the source
ARF1 = ARF1 (human)
MTOR = MTOR (human)
KEAP1 = KEAP1 (human)
pfkA = pfkA (human)
GAPDHS = GAPDHS (human)
[4] = target: HLA-A2 with peptide MAGB6 on T2 cells (human)
KDM1A = KDM1A (human)
MAGEB2 = MAGEB2 (human)
ARF3 = ARF3 (human)
FBXO34 = FBXO34 (human)
gutQ = gutQ (human)
CRMP1 = CRMP1 (human)
PIGG = PIGG (human)
DPYSL3 = DPYSL3 (human)
EDC3 = EDC3 (human)
SLC45A1 = SLC45A1 (human)
BNRF1 = BNRF1 (human)
UBE2V2 = UBE2V2 (human)
CCS = CCS (human)
URB1 = URB1 (human)
VPS13D = VPS13D (human)
PKP1 = PKP1 (human)
DPYSL4 = DPYSL4 (human)
DYNC1H1 = DYNC1H1 (human)
UNC80 = UNC80 (human)
[5] = target: T1, HLA-A2/MAGE-A4 peptide MHC (pMHC) …; remark: listed apart in the source

B1: Molecule A (bispecific antibody, V domains shown)
VH 1: YVQLVESGGGLVKPGGSLRLSCAAPLPFTGLDMSWVRQAPGKGLEWVGSISPKGGSTYYNDNVLGRFTISRDNSKNTLYLQMNSLRAEDTAVYYCARDWGFFDLWGQGTLVTVSS
VL 1: AIQMTQSPSSLSASVGDRVTITCRASQSISNYLAWYQQKPGKAPKLLIYDANAHENDVPSRFSGSGSGTDFTLTISSLQPEDFATYYCQQYSSHPYTFGQGTKLEIK
VH 2: not shown
VL 2: QAVVTQEPSLTVSPGGTVTLTCGSSTGAVTTSNYANWVQEKPGQAFRGLIGGTNKRAPGTPARFSGSLLGGKAALTLSGAQPEDEAEYYCALWYSNLWVFGGGTKLTVL
B1 was tested. Which “EC50 [pM] 24 h, T-cell mediated lysis of MAGE-A4 peptide pulsed T2 cells” value [1] did it give?
The value was 1.2 pM.

What about the “EC50, Jurkat-NFAT activation” value (V2A) of the same binder?
The value was 18.4 pM.

What about the “EC50, Jurkat-NFAT activation” value (G5A) of the same binder?
Its value is 5.6 pM.

And the “EC50, Jurkat-NFAT activation” value (Y3A)?
Its value is 5.27 nM.

And the “EC50, Jurkat-NFAT activation” value [2]?
The value was 10.5 pM.

And the “EC50, Jurkat-NFAT activation” value (E7A)?
The value was 100 pM.

What about the “EC50, Jurkat-NFAT activation” value (D4A) of the same binder?
The value was 51.6 nM.

And the “EC50, Jurkat-NFAT activation” value (G1A)?
The value was 40.1 nM.

And the “EC50, Jurkat-NFAT activation” value (H8A)?
Its value is 44 pM.

And the “EC50, Jurkat-NFAT activation” value (T9A)?
The value was 38.3 pM.

And the “EC50, Jurkat-NFAT activation” value (V10A)?
Its value is 29 pM.

What about the “EC50, Jurkat-NFAT activation” value (R6A) of the same binder?
The value was 40.1 nM.

What about the “EC50 [pM], activation of Jurkat-NFAT reporter cells (luminescence, 6 h) with MAGE-A4 peptide pulsed T2 cells” value [3] of the same binder?
Its value is 30.3 pM.

And the “% of MAGE-A4 signal, Jurkat-NFAT” value (ARF1)?
Its value is 0.67%.

What about the “% of MAGE-A4 signal, Jurkat-NFAT” value (MTOR) of the same binder?
Its value is 0.41%.

And the “% of MAGE-A4 signal, Jurkat-NFAT” value (KEAP1)?
Its value is 0.39%.

What about the “% of MAGE-A4 signal, Jurkat-NFAT” value (pfkA) of the same binder?
Its value is 0.58%.

What about the “% of MAGE-A4 signal, Jurkat-NFAT” value (GAPDHS) of the same binder?
The value was 0.91%.

What about the “% of MAGE-A4 signal, Jurkat-NFAT; grey (>2%)” value (from here on “% of MAGE-A4 signal … (>2%)”) [4] of the same binder?
The value was 22.4%.

And the “% of MAGE-A4 signal, Jurkat-NFAT” value (KDM1A)?
The value was 0.5%.

And the “% of MAGE-A4 signal, Jurkat-NFAT” value (MAGEB2)?
The value was 0.83%.

What about the “% of MAGE-A4 signal, Jurkat-NFAT” value (ARF3) of the same binder?
Its value is 0.92%.

And the “% of MAGE-A4 signal, Jurkat-NFAT” value (FBXO34)?
The value was 0.46%.

What about the “% of MAGE-A4 signal, Jurkat-NFAT” value (gutQ) of the same binder?
Its value is 0.64%.

What about the “% of MAGE-A4 signal, Jurkat-NFAT” value (CRMP1) of the same binder?
Its value is 1.74%.

And the “% of MAGE-A4 signal, Jurkat-NFAT” value (PIGG)?
Its value is 0.7%.

And the “% of MAGE-A4 signal … (>2%)” value (DPYSL3)?
Its value is 32.9%.

And the “% of MAGE-A4 signal, Jurkat-NFAT” value (EDC3)?
The value was 0.9%.

What about the “% of MAGE-A4 signal, Jurkat-NFAT” value (SLC45A1) of the same binder?
Its value is 0.39%.

And the “% of MAGE-A4 signal, Jurkat-NFAT” value (BNRF1)?
The value was 0.47%.

And the “% of MAGE-A4 signal, Jurkat-NFAT” value (UBE2V2)?
The value was 0.75%.

What about the “% of MAGE-A4 signal … (>2%)” value (CCS) of the same binder?
The value was 3.06%.

And the “% of MAGE-A4 signal … (>2%)” value (URB1)?
The value was 80.5%.

And the “% of MAGE-A4 signal, Jurkat-NFAT” value (VPS13D)?
Its value is 0.67%.

What about the “% of MAGE-A4 signal, Jurkat-NFAT” value (PKP1) of the same binder?
Its value is 0.5%.

What about the “% of MAGE-A4 signal, Jurkat-NFAT” value (DPYSL4) of the same binder?
The value was 1.68%.

And the “% of MAGE-A4 signal, Jurkat-NFAT” value (DYNC1H1)?
Its value is 0.4%.

What about the “% of MAGE-A4 signal, Jurkat-NFAT” value (UNC80) of the same binder?
Its value is 0.48%.

What about the “EC50 [pM], T-cell mediated lysis of A-375 cells, 24 h” value [5] of the same binder?
The value was 1210 pM.

And the “EC50 [pM], T-cell mediated lysis of C-33A cells, 24 h” value [5]?
Its value is 225 pM.

What about the “EC50 [pM], T-cell mediated lysis of IM-9 cells, 24 h” value [5] of the same binder?
The value was 43.4 pM.

And the “EC50 [pM], T-cell mediated lysis of NCI-H1755 cells, 24 h” value [5]?
Its value is 9.4 pM.

What about the “EC50 [pM], T-cell mediated lysis of NCI-H2023 cells, 24 h” value [5] of the same binder?
Its value is 2090 pM.

And the “EC50 [pM], T-cell mediated lysis of UMUC-3 cells, 24 h” value [5]?
Its value is 775 pM.
